{"source": "patent US20210155689A1", "about": "(SHANGHAI PHARMAEXPLORER, published 2021)", "binders": {"B1": {"name": "105F1E10 mouse-human chimeric antibody (antibody, V domains shown)", "VH": "EVQLQQSGPELVKPGASVKMSCRASGYTFTDFKMHWMKQSHGKSLEWIGYIAPNNGGTAYNQKFRGKATLTVNESSNTAYMELRSLTSEDSAVYYCVDWDDVDYWGQGTTLTVSS", "VL": "DIKMTQSPSSMYASLGERVTITCKASQDINSYLSWFQQKSGKSPKTLIYRANRLVDGVPSRFSGSGSGQDYSLTISSLEYEDMGIYYCLQYVEFPLTFGAGTKLELK", "notes": "also called mAb009-105F1E10"}, "B2": {"name": "405B8H3 mouse-human chimeric antibody (antibody, V domains shown)", "VH": "QVQLQQSGAELVRPGASVTLSCKASGYTFTDYEMHWVKQTPVHGLEWIGATDPETGNSAYNQKFKGKAIMTADKSSSTAYMELRSLTSEDSAVYYCISTGWNDWGQGTSLTVSS", "VL": "B1 VL with S40P, N52D, V55L, E81G, V92D, L96Y, A100G, L106I", "notes": "also called mAb103-405B8H3"}, "B3": {"name": "409B11E12 mouse-human chimeric antibody (antibody, V domains shown)", "VH": "B2 VH with P41T, G56S, N57Y, M70L, S98A", "VL": "B1 VL with I2L, S40P, V55L, V92D, L96Y, A100G, L106I", "notes": "also called mAb104-409B11E12"}, "B4": {"name": "409D4E10 mouse-human chimeric antibody (antibody, V domains shown)", "VH": "B2 VH with Y27N, G56D, S58T, M70L, A72T, S98T, T99S", "VL": "B1 VL with S40P, V55L, V92N, L96Y, A100G, L106I", "notes": "also called mAb112-409D4E10"}}, "note": "Where a chain is given by its changes, count along the chain named."}
{"molecular_target": "T1, monkey LAG-3 on cells (HEK293-cLAG-3 stable cell line) (monkey, UniProt P18627 24-525 (human entry))", "T1 construct": "Full-length monkey (Chinese monkey) LAG-3 gene expressed on HEK293 cells", "T1 chain": "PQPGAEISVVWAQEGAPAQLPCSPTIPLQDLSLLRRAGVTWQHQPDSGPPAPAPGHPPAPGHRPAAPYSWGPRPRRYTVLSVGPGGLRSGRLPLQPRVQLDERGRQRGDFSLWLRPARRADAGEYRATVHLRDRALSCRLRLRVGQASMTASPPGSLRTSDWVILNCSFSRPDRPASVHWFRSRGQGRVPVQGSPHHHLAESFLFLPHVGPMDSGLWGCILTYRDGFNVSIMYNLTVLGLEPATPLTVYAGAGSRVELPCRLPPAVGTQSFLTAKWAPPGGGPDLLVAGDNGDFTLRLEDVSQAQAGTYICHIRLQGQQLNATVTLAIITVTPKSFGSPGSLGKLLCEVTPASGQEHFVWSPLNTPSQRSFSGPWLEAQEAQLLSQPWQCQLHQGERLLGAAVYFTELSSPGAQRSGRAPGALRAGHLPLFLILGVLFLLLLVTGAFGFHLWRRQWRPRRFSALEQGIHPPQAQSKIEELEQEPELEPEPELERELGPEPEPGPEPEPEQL", "test": "FACS, HEK293-cLAG-3, antibody 0.000 nM", "source_text": "(§1) The pIRES plasmid with the monkey-derived full-length gene was transfected into the HEK293 cell line to construct a HEK293 stable cell line containing monkey LAG-3 (herein referred to as HEK293-cLAG-3 stable cell line). The HEK293-hLAG-3 stable cell line and HEK293-cLAG-3 stable cell line were expanded in a T-75 cell culture flask to a 90% confluence. The medium was aspirated, and the cells were washed with HBSS (Hanks' Balanced Salt Solution) 1-2 times, then treated with a enzyme-free cell dissociation fluid (Versene solution: Life technology) and the cells were collected. The cells were washed with HBSS buffer for 1-2 times. After counted, the cells were diluted with HBSS to 1-2×10⁶ cells per ml, added with 1% goat serum blocking solution, incubated on ice for 20-30 minutes, and then washed with HBSS for 2 times by centrifugation. The collected cells were suspended in the FACS buffer (HBSS+1% BSA) to 2×10⁶ cells/ml, added as 100 microliters per well to a 96-well FACS reaction plate, added with 100 microliters per well of the antibody sample to be tested, incubated on ice for 1-2 hours. The plate was washed twice with the FACS buffer by centrifugation, added with 100 microliters of fluorescent (Alexa 488)-labeled secondary antibodies per well, and incubated on ice for 0.5-1.0 hours. The plate was washed 2-3 times with FACS buffer by centrifugation, added with 100 μl fixative solution (4% Paraformaldehyde) per well to suspend the cells. 5-10 minutes later, it was washed 1-2 times with FACS buffer by centrifugation. The cells were suspended with 100 microliters of FACS buffer, FACS (FACSCalibur, BD) was used for detection and the results were analyzed."}
{"binder": "B1", "Mean fluorescence intensity": 2.72}
{"binder": "B2", "Mean fluorescence intensity": 2.9}
{"binder": "B3", "Mean fluorescence intensity": 2.84}
{"binder": "B4", "Mean fluorescence intensity": 2.99}
{"molecular_target": "T1, monkey LAG-3 on cells (HEK293-cLAG-3 …)", "test": "FACS, HEK293-cLAG-3, antibody 0.064 nM", "source_text": "as §1"}
{"binder": "B1", "Mean fluorescence intensity": 3.54}
{"binder": "B2", "Mean fluorescence intensity": 4.8}
{"binder": "B3", "Mean fluorescence intensity": 4.95}
{"binder": "B4", "Mean fluorescence intensity": 4.42}
